Results on one protein are retold here after PMC8893199, “A Cysteine Variant at an Allosteric Site Alters MIF Dynamics and Biological Function in Homo- and Heterotrimeric Assemblies” (Frontiers in Molecular Biosciences, 2022).

This series concerns the molecule itself. Description: AUC; sedimentation velocity, Y99C MIF homotrimer at three loading concentrations, PBS, 20°C, 50,000 rpm, c(s) analysis in SEDFIT.

B1: Y99C MIF homotrimer (natural protein, human, UniProt P14174 1-115, looked up)
chain: MPMFIVNTNVPRASVPDGFLSELTQQLAQATGKPPQYIAVHVVPDQLMAFGGSSEPCALCSLHSIGKIGGAQNRSYSKLLCGLLAERLRISPDRVYINYCDMNAANVGWNNSTFA
notes: untagged; Made by site-directed mutagenesis of the WT MIF cDNA in pET-11b (construct from Pantouris et al., 2018); also called Y99C variant; homotrimeric Y99C MIF; source: E. coli BL21-Gold (DE3), pET-11b, purified (Q-Sepharose and SP flow-through, Superdex 75)
In the case of B1, the stoichiometry N (commonly the number of molecules, sites or subunits per partner or assembly) stood at 3.
